{"source": "patent US7268216B2", "about": "“Chimeric avidin mutants” (Licentia Oy, priority 2004, dated 2007)", "key": {"[1]": {"experiment": "Differential scanning calorimetry (DSC), heat denaturation", "type": "physicochemical", "protocol": "The transition midpoint of the heat denaturation (Tm) of the avidin proteins was studied using a Calorimetry Sciences Corporation (CSC) Nano II differential scanning calorimeter, as in previous reports (22,23). Proteins (˜0.5 mg/ml) were analyzed both in the absence and presence of biotin (3:1 molar ratio; biotin:avidin monomer)."}, "[2]": {"experiment": "Microplate assay: remaining biotin-binding activity after heat treatment", "type": "physicochemical", "settings": "50 mM phosphate buffer, 100 mM NaCl, pH 7.0", "protocol": "The inactivation of the proteins during heat-treatment was analysed by using a microplate assay (23). The proteins were heated to 99.9° C. in 50 mM phosphate buffer containing 100 mM NaCl (pH 7.0) for 32 minutes. The remaining activity was probed by measuring the ability of the proteins to bind biotinylated alkaline phosphatase by coating the microplate wells with samples of the heated proteins."}, "Proteinase K [3]": {"tested_on": "Proteinase K", "experiment": "Proteinase K assay (proteolytic resistance, SDS-PAGE)", "type": "physicochemical", "settings": "for digested after treatment with Proteinase K: 16 hours, 37° C., Proteinase K 1/25 w/w, without biotin; for cleavage by Proteinase K: proteins saturated with biotin before treatment", "protocol": "The proteolytic resistance of the proteins were studied using proteolysis by Proteinase K, as previously described (7). Protein sample (4 μg) was incubated in the presence of Proteinase K ( 1/25 w/w) at 37° C. for a predetermined time period, denatured by boiling in sample buffer (SDS, 2-mercaptoethanol) and subjected to SDS-PAGE followed by coomassie staining."}, "[4]": {"experiment": "IAsys optical biosensor (SPR), 2-iminobiotin binding", "settings": "2-iminobiotin surface, 20° C., 50 mM borate buffer pH 9.5, 1 M NaCl", "protocol": "The biotin-binding characteristics of the different avidins were studied by a surface plasmon resonance (SPR) optical biosensor (IAsys). The binding affinities to the 2-iminobiotin surface in 50 mM borate buffer (pH 9.5, 1 M NaCl) were measured as previously reported (7)."}, "[5]": {"experiment": "Radiobiotin dissociation assay", "type": "binding", "settings": "[3H]biotin, various temperatures", "protocol": "The dissociation rate of [3H]biotin from avidin, AVR4/5 and the avidin mutants was determined as described in (20) at various temperatures. The activation thermodynamic parameters for AVR4/5(C122S) and avidin were determined by analysis of the dependence of the dissociation rate upon temperature using the global fit of all data, as described in (21)."}, "[6]": {"experiment": "Fluorescent biotin dissociation assay", "type": "binding", "protocol": "The binding of labelled biotin to avidins was analysed by a method based on the quenching of a biotin-coupled fluorescent probe ArcDia BF560 (ArcDia Ltd., Turku, Finland) due to binding to avidin, as previously described (18). The measurements were performed using a PerkinElmer LS55 luminometer with thermostated cuvette (25 or 50° C.). The signal measured for 3600 sec (25° C.) or 2400 sec (50° C.) was used to determine the dissociation rate constant."}, "[7]": {"settings": "cited from earlier work"}, "Proteinase K [8]": {"tested_on": "Proteinase K", "settings": "even without bound biotin; refs (8,32); cited from earlier work"}}, "note": "Read-outs that look alike come from different tables or passages of the source.", "data": [{"substance": "AVD(I117Y): Avidin with mutation I117Y in 1-3 subunit interface, produced in baculovirus-infected insect cells", "values": [{"measurement": "Tm, transition midpoint of heat denaturation", "setting": "[1]", "value": 97.5, "unit": "°C"}, {"measurement": "ΔTm, change in Tm upon addition of a three-fold molar excess of biotin", "setting": "[1]; DSC", "value": 26.2, "unit": "°C"}, {"measurement": "Tm(+biotin)", "setting": "[1]; DSC, biotin 3:1 molar ratio biotin:avidin monomer", "value": "123.7 ± 0.1", "unit": "°C"}, {"measurement": "ΔH (unfolding enthalpy)", "setting": "[1]; DSC, sample without biotin", "value": "128 ± 1.4", "unit": "kcal/mol"}, {"measurement": "Tm(−biotin)", "setting": "[1]; DSC, without biotin, average ± S.D", "value": "97.5 ± 0.4", "unit": "°C"}, {"measurement": "Activity: biotin-binding activity after 32 min treatment at 99.9° C.", "setting": "[2]", "value": 47, "unit": "%"}, {"measurement": "digested after treatment with Proteinase K", "setting": "Proteinase K [3]", "value": 50, "unit": "%"}, {"measurement": "cleavage by Proteinase K", "setting": "Proteinase K [3]", "value": "no cleavage was observed"}, {"measurement": "kass, association rate constant", "setting": "[4]", "value": "(2.3 ± 0.3) × 10^4 M^−1s^−1"}, {"measurement": "biotin binding / dissociation rate in radiobiotin dissociation assay", "setting": "[5]", "value": "very tight, avidin-like biotin binding"}, {"measurement": "Release 1 h (total release of the probe)", "setting": "[6]; 25° C.", "value": 3.0, "unit": "%"}, {"measurement": "kdiss, dissociation rate constant", "setting": "[6]; 25° C.", "value": "0.81 10^−5 s^−1"}, {"measurement": "Release 1 h (total release of the probe)", "setting": "[6]; 50° C.", "value": 56.5, "unit": "%"}, {"measurement": "kdiss, dissociation rate constant", "setting": "[6]; 50° C.", "value": "1.61 10^−4 s^−1"}]}, {"substance": "AVD: Chicken avidin obtained from Belovo S. A.; homotetrameric egg-white glycoprotein (SEQ ID NO:1) [reference compound]", "values": [{"measurement": "Activity: biotin-binding activity after 32 min treatment at 99.9° C.", "setting": "[2]", "value": 4, "unit": "%"}, {"measurement": "digested after treatment with Proteinase K", "setting": "Proteinase K [3]", "value": 50, "unit": "%"}, {"measurement": "cleavage by Proteinase K", "setting": "Proteinase K [3]", "value": "no cleavage was observed"}, {"measurement": "kass, association rate constant", "setting": "[4]", "value": "(2.6 ± 0.2) × 10^4 M^−1s^−1"}, {"measurement": "Release 1 h (total release of the probe)", "setting": "[6]; 25° C.", "value": 10.7, "unit": "%"}, {"measurement": "kdiss, dissociation rate constant", "setting": "[6]; 25° C.", "value": "2.04 10^−5 s^−1"}, {"measurement": "Release 1 h (total release of the probe)", "setting": "[6]; 50° C.", "value": 71.5, "unit": "%"}, {"measurement": "kdiss, dissociation rate constant", "setting": "[6]; 50° C.", "value": "2.74 10^−4 s^−1"}, {"measurement": "ΔH (unfolding enthalpy)", "setting": "[7]; DSC, sample without biotin, results from ref (8)", "value": "78.6 ± 1.2", "unit": "kcal/mol"}, {"measurement": "Tm(+biotin)", "setting": "[7]; DSC, with biotin, results from ref (8)", "value": "117.0 ± 0.7", "unit": "°C"}, {"measurement": "Tm(−biotin)", "setting": "[7]; DSC, without biotin, results from ref (8)", "value": "83.5 ± 0.1", "unit": "°C"}, {"measurement": "ΔTm, change in Tm upon addition of a three-fold molar excess of biotin", "setting": "[7]; DSC, results from ref (8)", "value": 33.5, "unit": "°C"}, {"measurement": "Tm, transition midpoint of heat denaturation", "setting": "[7]; from ref (8)", "value": 83.5, "unit": "°C"}]}, {"substance": "streptavidin: Bacterial analogue of avidin from Streptomyces avidinii", "values": [{"measurement": "resistance to cleavage by Proteinase K", "setting": "Proteinase K [8]", "value": "resistant to cleavage"}]}]}
